According to patent publication US12006343B2, “C4BP-based compounds for treating immunological diseases” (FUNDACIO INSTITUT D'INVESTIGACIO BIOMEDICA DE BELLVITGE …, priority 2017, dated 2024):
Entries after “also recorded” stand apart in the source; their conditions may differ.

Tests used:
[1] = mouse, in vivo, cited from earlier work
[2] = test system: lupus-prone NZBWF1 mice; assay: Kaplan-Meier survival in spontaneous SLE mouse model NZBWF1; format: in vivo; settings: for mice still alive at the end of the study: 330 days
Experimental: NZBWF1/J mice develop an autoimmune disease resembling human systemic lupus erythematosus. […] The animals were maintained under standard laboratory conditions, at 20-24° C. and 40-70% relative humidity, with 12-hour fluorescent light/12-hour dark cycle. They were feed standard diet and tap water ad libitum.
(§1) Both IP and SC administrations for C4BP(β−), CYP and PBS (150 μl/each) were performed with a 25-gauge needle during 30 s, after rinsing the skin with 70% ethanol.
(§2) The detailed administration schedule was as follows (Table 5):
(§3) One-way analysis of variance (ANOVA) with post hoc tests was performed to compare proteinuria throughout the follow up. Survival data were analyzed using Kaplan-Meier curves and long-rank test. P value<0.05 was considered significant. Data are expressed as mean±SEM.

[3] = test system: human monocyte-derived DCs; assay: Immunomodulatory activity over human monocyte-derived DCs: CD83/CD86 surface expression by flow cytometry after LPS maturation; format: cell-based; settings: FIG. 4
Experimental: In Vitro Functional Assessment of the Immunomodulatory Activity of Full-Length C4BP(β−) and C4BP(β−) Variants Over DCs
The inventors used for the in vitro study both C4BP(β+) (WT) and recombinant C4BP(β−) isoforms, and the above-referred mutants or variants: Mutant 1 and Mutant 2. C4BP(β+) isoforms refer to the major C4BP α7β1 plus the minor C4BP α6β1 isoforms (both in complex with ProS) purified from pooled human plasma.
RPMI 1640 was supplemented with 100 μg/ml of streptomycin, 100 IU/ml of penicillin, 2 mM L-glutamine (all from Invitrogen, Carlsbad, CA) and 10% heat-inactivated fetal bovine serum (Linus, Cultek, Spain) (complete medium), unless otherwise stated.
Peripheral blood mononuclear cells (PBMCs) were obtained from buffy coat preparations collected from healthy donors from the Blood and Tissue Bank (Barcelona, Spain) after Ficoll-Paque™ density centrifugation (GE Healthcare Bio-Sciences AB; Uppsala, Sweden). For surface phenotype determination, monocytes were plated at 1×10^6 cells/ml in 60 mm culture plates (Corning, Spain), in RPMI 1640 medium without serum, and allowed to adhere for 2 h at 37° C. in 5% CO2. The non-adherent cells were removed by washing in PBS.
Monocyte-derived DCs were generated supplementing the monocyte cultures with complete RPMI 1640 medium plus GM-CSF (800 UI/ml) and IL-4 (500 UI/ml) (both from Gentaur, Kampenhout, Belgium) at day 0 and day 3 of culture. For DC maturation, at day 5 iDCs were further stimulated for 48 h with 5 μg/ml LPS (Escherichia coli 055.B5, Sigma L2880, Copenhagen, Denmark).
Staining using the fluorescent dye 7-amino-actinomycin D (7-AAD) (BD Pharmigen) and flow cytometry analysis was employed to assess the viability status of C4BP-treated and untreated DCs.
Cell surface phenotypes were analyzed by flow cytometry using the following mAbs: FITC-conjugated anti-CD83 (HB15a) and PE-conjugated anti-CD86 (HA5.2B7) (all from Beckman-Coulter). The respective isotype controls FITC-conjugated anti-IgG2b (H2) and PE-conjugated anti-IgG2b (H2), were from the same commercial sources. After washing with PBS, cells were subsequently stained with 3 μl mAb/10^5 cells in 100 μl of FACS buffer (PBS containing 1% BSA and 0.1% sodium azide) for 20 min at room temperature. To exclude dead cells and debris, DCs were gated according to forward scatter (FSC) and side scatter (SSC) parameters. Stained cells were analyzed using a FACSCalibur (Becton Dickinson, Franklin Lakes, NJ) equipped with CellQuestPro software (Becton Dickinson).
In Vitro Functional Assessment of C4BP(β−) Immunomodulatory Activity Over DCs
The inventors used for the in vitro study both C4BP(+) and C4BP(β−) isoforms. C4BP(3+) isoforms refer to the major C4BP α7β1 plus the minor C4BP α6β1 isoforms (both in complex with ProS) purified from pooled human plasma, as previously described (Dahlbäck B. 1983. Biochem J., 209:847-56).

[4] = test system: lupus-prone NZBWF1 mice; assay: Renal function (24 h proteinuria) in spontaneous SLE mouse model NZBWF1; format: in vivo; settings: for delay in the onset of proteinuria: vs PBS-treated control
Experimental: Mice, Study Design and Follow Up
NZB/NZW F1 or NZBWF1/J (Charles-River), NZB/NZW F1 (Jackson, code 100008) are a hybrid cross between NZB/B1NJ (Jackson, code 000684) Female x NZW/LacJ (Jackson, code 001058) Male. NZBWF1/J mice develop an autoimmune disease resembling human systemic lupus erythematosus. The inventors used 58 females (30-35 g/each) aged 15 weeks for the study (4-5 animals per cage). The animals were maintained under standard laboratory conditions, at 20-24° C. and 40-70% relative humidity, with 12-hour fluorescent light/12-hour dark cycle. They were feed standard diet and tap water ad libitum. […]
Dose Selection and Administration.
The selection of the C4BP(β−) dose for in vivo administration was based in previous studies employing complement-related proteins in immune-inflammatory pathologies. Blom et al. (Blom et al. 2009. Ann. Rheum. Dis., 68:136-42) used the C4BP isoform lacking β chain in experimental collagen-induced arthritis (CIA) and collagen antibody-induced arthritis (CAIA) mice to investigate the influence of complement activity in the treatment of rheumatoid arthritis. These authors administered intraperitoneally C4BP (2 mg/mouse) using a multiple dose-regimen once every two days in preventive and therapeutic experiments. Thus, in the current study, C4BP(β−) was administered both intraperitoneally (IP) and subcutaneously (SC) into NZBWF1 mice for three months (between six and nine months of age).
Alperovich et al (Alperovich et al. 2007. Lupus, 16:18-24) administered cyclophosphamide (CYP) to NZBWF1 mice at 50 mg/kg IP every 10 days.
as §1, §2
Body weight was determined twice monthly from the beginning to the end of follow-up. Mice were placed in metabolic cages to collect 24 h urine specimens before the onset of treatment and monthly thereafter. Blood was obtained from the tail vein at monthly intervals.
Renal Function Analysis: Proteinuria
24 h urinary protein was determined by pyrogallol red (Olympum Autoanalyzer AU400, Hamburg, Germany) in the Veterinary Clinical Biochemistry Laboratory from Universitat Autonoma de Barcelona.
as §3

[5] = IP, 5 μg/mouse once every two weeks
[6] = IP, 50 μg/mouse once every two weeks
[7] = IP, 500 μg/mouse once every two weeks

B1: C4BP: human C4b-binding protein as used by Blom et al. 2009, intraperitoneally in mice (protein, UniProt P04003 49-597; P20851 18-252, looked up)
C4b-binding protein alpha …: NCGPPPTLSFAAPMDITLTETRFKTGTTLKYTCLPGYVRSHSTQTLTCNSDGEWVYNTFCIYKRCRHPGELRNGQVEIKTDLSFGSQIEFSCSEGFFLIGSTTSRCEVQDRGVGWSHPLPQCEIVKCKPPPDIRNGRHSGEENFYAYGFSVTYSCDPRFSLLGHASISCTVENETIGVWRPSPPTCEKITCRKPDVSHGEMVSGFGPIYNYKDTIVFKCQKGFVLRGSSVIHCDADSKWNPSPPACEPNSCINLPDIPHASWETYPRPTKEDVYVVGTVLRYRCHPGYKPTTDEPTTVICQKNLRWTPYQGCEALCCPEPKLNNGEITQHRKSRPANHCVYFYGDEISFSCHETSRFSAICQGDGTWSPRTPSCGDICNFPPKIAHGHYKQSSSYSFFKEEIIYECDKGYILVGQAKLSCSYSHWSAPAPQCKALCRKPELVNGRLSVDKDQYVEPENVTIQCDSGYGVVGPQSITCSGNRTWYPEVPKCEWETPEGCEQVLTGKRLMQCLPNPEDVKMALEVYKLSLEIEQLELQRDSARQSTLDKEL
C4b-binding protein beta chain: SDAEHCPELPPVDNSIFVAKEVEGQILGTYVCIKGYHLVGKKTLFCNASKEWDNTTTECRLGHCPDPVLVNGEFSSSGPVNVSDKITFMCNDHYILKGSNRSQCLEDHTWAPPFPICKSRDCDPPGNPVHGYFEGNNFTLGSTISYYCEDRYYLVGVQEQQCVDGEWSSALPVCKLIQEAPKPECEKALLAFQESKNLCEAMENFMQQLKESGMTMEELKYSLELKKAELKAKLL
initial amount remaining in the circulation ([1]; ip): 3%
clearance from the circulation [1]: cleared fast

B2: rC4BP(β−): recombinant C4BP isoform lacking the β-chain, transiently produced in HEK293 cells (Expi293 cells) (protein, UniProt P04003 49-597, looked up)
C4b-binding protein alpha …: B1 C4b-binding protein alpha …
modifications: alpha-chain-only isoform, recombinant
survival ([2]; IP, 5 μg once every two weeks, all mice died at end of study (330 days)): performed similarly to the control PBS-treated group
mice still alive at the end of the study ([2]; IP, 50 μg once every two weeks): 20-30%
mice still alive at the end of the study ([2]; IP, 500 μg once every two weeks): 20-30%
mice active at the end of the study ([2]; SC route, all treatment groups): maintained mice active at the end of the study
mice alive at 330 days ([2]; SC, 50 μg once every two weeks): more than 60%
survival respect to control PBS-treated mice ([2]; SC, 50 μg once every two weeks): appreciably delay their survival; also recorded: best survival rate
progress of the disease ([2]; SC, 50 μg, NZBWF1 mice): substantial slowing of the progress of the disease
statistical analysis of Kaplan-Meier survival curves vs control PBS-treated group ([2]; any of the rC4BP(β−)-treated groups, n=6): no statistically significant differences
survival, subcutaneous route compared with intraperitoneal route ([2]; doses of 5 μg and 50 μg, FIG. 6): higher
semi-mature, anti-inflammatory phenotype conferred to LPS-matured MoDCs (immunomodulatory activity) ([3]; MoDCs pre-incubated with 5 μg/ml protein, LPS challenge): able to confer an analogous semi-mature, anti-inflammatory phenotype
CD83 and CD86 surface marker expression ([3]; human MoDCs, 5 μg/ml C4BP isoform, LPS 5 μg/ml): restrain similarly CD83 and CD86 surface marker expression
proteinuria by week 37 [4, 5]: severe proteinuria indistinguishable from the PBS-treated control group
delay in the onset of proteinuria [4, 5]: 2 week
proteinuria by week 37 [4, 6]: severe proteinuria indistinguishable from the PBS-treated control group
delay in the onset of proteinuria [4, 6]: 2 week
proteinuria level at the end of the study (week 37) [4, 7]: ~300 mg protein/kg
delay in the onset of proteinuria [4, 7]: 6 weeks
proteinuria by week 37 (end of the study) ([4]; SC, 50 μg once every two weeks): < 200 mg/kg
onset / development of proteinuria ([4]; mouse, in vivo, sc): significantly delayed; also recorded: strongest attenuation of proteinuria development
efficacy, SC 50 μg/mouse vs IP 500 μg/mouse ([4]; same regimen, SLE mouse model): more effective than the intraperitoneal administration of 500 μg/mouse
